For experiment [1], the target named is T1, human PD-L1-Fc protein (human, UniProt Q9NZQ7 19-238).
T1 construct: coating antigen of the ELISAs; also called rhPD-L1-Fc; not shown: Fc
The experiment in a line: receptor blocking ELISA: coated human PD-L1-Fc, blocked ligand biotin-labeled human CD80-Fc (Bio-CD80), OD 450nm; middle right panel. The procedure: (§1) Briefly, microtiter plates were coated with human PD-L1-Fc protein at 0.5 μg/ml in PBS, 100 μl/well at 4° C. overnight, then blocked with 150 μl/well of 1% BSA at 37° C. for 2 hours. […] The plates were washed with PBS/Tween and then incubated with Streptavidin-HRP for 10 mins at 37° C. After washing, the plates were developed with TMB substrate and analyzed by spectrophotometer at OD 450 nm.
Background: An ELISA detects its analyte on a solid surface through an enzyme-linked reagent.

Experiment [2] addresses T2, human PD-L1-his tag protein (human, UniProt Q9NZQ7 19-238).
T2 construct: also called human PD-L1-His protein; recombinant PD-L1 protein; not shown: his tag
Kind of experiment: SPR (Biacore), affinity ranking, PDL1-His. In general terms: Surface plasmon resonance follows binding to a sensor surface in real time, without labels.

Experiment [3] has as its target T2, human PD-L1-his tag protein. The experiment in a line: SPR (Biacore T200), mAb captured on Protein A chip, PD-L1-his injected. The procedure: The binding of the humanized antibodies to recombinant PD-L1 protein (human PD-L1-his tag) was tested by Biacore using a capture method. […] A serial dilution of human PD-L1-his tag protein was injected over captured antibody for 2 mins at a flow rate of 30 μl/min. The antigen was allowed to dissociate for 1500 s. All the experiment were carried out on a Biacore T200.

Experiment [4] concerns the target T1, human PD-L1-Fc protein. Kind of experiment: ELISA, antibody titrated on coated human PD-L1-Fc, OD 450nm; upper right panel. The procedure:
(§2) To evaluate antigen binding activity, the humanized antibodies were subjected to ELISA test. Briefly, microtiter plates were coated with human PD-L1-Fc protein at 0.5 μg/ml in PBS, 100 μl/well at 4° C. overnight, then blocked with 200 μl/well of 1% BSA. Three-fold dilutions of humanized antibodies starting from 10 μg/ml were added to each well and incubated for 1 hour at 37° C. The plates were washed with PBS/Tween and then incubated with mouse-anti-human IgG Fab antibody conjugated with Horse Radish Peroxidase (HRP) for 1 hour at 37° C. After washing, the plates were developed with TMB substrate and analyzed by spectrophotometer at OD 450 nm.

Experiment [5] addresses T3, human PD-L1 over-expressed on CHOK1 cells (human, UniProt Q9NZQ7 19-290).
T3 construct: whole, on cells; also called PDL1-CHOK1 cells
The experiment in a line: flow cytometry (MFI) on PDL1-CHOK1 cells; upper right panel. The procedure:
To evaluate the antigen binding property, the humanized antibodies were analyzed for their binding to PD-L1 overexpressed on mammalian cells by FACS. Briefly, PDL1-CHOK1 cells were firstly incubated with 3-fold serious diluted humanized antibodies starting at 15 μg/ml at 4° C. for 40 mins. After washed by PBS, the Alexa Fluor® 647 AffiniPure Goat Anti-Human IgG (H+L) antibody was added to each well and incubated at 4° C. for 30 mins. The MFI of Alexa Fluor® 647 was evaluated by FACSCanto.

Experiment [6] has as its target T1, human PD-L1-Fc protein. Kind of experiment: receptor blocking ELISA: coated human PD-L1-Fc, blocked ligand biotin-labeled human PD-1-Fc (Bio-PD1), OD 450nm; middle right panel. The procedure:
as §1

In experiment [7] the target is T1, human PD-L1-Fc protein. Kind of experiment: receptor blocking ELISA: coated human PD-L1-Fc, blocked ligand biotin-labeled human CD80-Fc (Bio-CD80), OD 450nm [cont'd]. On the procedure: as §1
Experiment [8] deals with T1, human PD-L1-Fc protein. The experiment in a line: ELISA, antibody titrated on coated human PD-L1-Fc, OD 450nm; lower right panel. The procedure:
as §2

The target in experiment [9] is T1, human PD-L1-Fc protein. The experiment in a line: receptor blocking ELISA: coated human PD-L1-Fc, blocked ligand biotin-labeled human PD-1-Fc (Bio-PD1), OD 450nm [cont'd]. On the procedure:
as §1

T1 sequence (Q9NZQ7 19-238 limits assumed): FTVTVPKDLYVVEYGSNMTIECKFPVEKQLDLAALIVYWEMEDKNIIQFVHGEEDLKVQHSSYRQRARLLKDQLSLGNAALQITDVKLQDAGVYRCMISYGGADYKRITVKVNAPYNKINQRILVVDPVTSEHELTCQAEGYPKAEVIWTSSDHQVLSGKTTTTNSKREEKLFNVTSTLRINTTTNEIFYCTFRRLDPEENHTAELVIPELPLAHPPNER
T2 sequence (Q9NZQ7 19-238 limits assumed): as above
T3 sequence (Q9NZQ7 19-290): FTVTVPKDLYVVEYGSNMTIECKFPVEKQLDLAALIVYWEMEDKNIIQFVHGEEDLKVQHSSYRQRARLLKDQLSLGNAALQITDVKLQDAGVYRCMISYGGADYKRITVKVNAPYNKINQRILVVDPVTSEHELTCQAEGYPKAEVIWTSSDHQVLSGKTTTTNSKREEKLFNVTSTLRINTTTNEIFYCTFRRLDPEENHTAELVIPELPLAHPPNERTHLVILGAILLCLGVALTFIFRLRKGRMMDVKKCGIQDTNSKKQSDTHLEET

B1: Hu67F3G7-7 (antibody, V domains shown)
VH: EVQLVQSGAEVKKPGASVKVSCKASGYTFTDFWVSWVRQAPGQGLEWMGEIYPNSGVSRYNEKFKGRVTMTVDKSISTAYMELSRLRSDDTAVYYCTKYFGYTYWFGYWGQGTLVTVSS
VL: DTVLTQSPSSLSASVGDRVTITCRASKSVSTYMHWYQQKPGKAPKLLIYSASHLESGVPSRFSGSGSGTDFTLTISSLQPEDFATYYCQQSNELPVTFGGGTKVEIK
notes: humanized
In the case of B1, the IC50 with human PD-L1-Fc protein [1] turned out to be 0.382 µg/mL; in the experiment with human PD-L1-Fc protein [6], 0.14 µg/mL. The equilibrium dissociation constant (Kd) in [2] was 0.0353 nM; in experiment [3], 0.0328 nM. The koff worked out at 9.49e-05 s⁻¹ in experiment [2] and 7.25e-05 s⁻¹ in experiment [3]. Moreover, the figures for the kon in [2] and in [3] were 2.69e+06 M⁻¹ s⁻¹ and 2.21e+06 M⁻¹ s⁻¹, respectively. Also, the EC50 with human PD-L1-Fc protein [4] came to 0.0124 µg/mL; in experiment [5] it was 0.11 nM.

B2: Hu67F3G7-22 (antibody, V domains shown)
VH: EVQLVQSGAEVKKPGASVKVSCKASGYTFTDFWVSWVRQAPGQGLEWMGEIYPNSGVSRYNEKFKGRVTMTVDKSISTAYMELSRLRSDDTAVYYCTKYFGYTYWFGYWGQGTLVTVSS
VL: DIQMTQSPSSLSASVGDRVTITCRASKSVSTYMHWYQQKPGKQPKLLIYSASHLESGVPSRFSGSGSGTDFTLTISSLQPEDFATYYCQQSNELPVTFGGGTKVEIK
notes: humanized
B2: the IC50 in the experiment with human PD-L1-Fc protein [7] is 0.126 µg/mL; in the experiment with human PD-L1-Fc protein [9] it was 0.108 µg/mL. In addition, the EC50 turned out to be 0.0078 µg/mL with human PD-L1-Fc protein [8] and 0.118 nM in experiment [5]. Also, the Kd in experiment [2] amounted to 0.0435 nM; in experiment [3] it was 0.0326 nM. For the same molecule, the dissociation rate constant (koff) worked out at 7.26e-05 s⁻¹ in [2] and 5.79e-05 s⁻¹ in [3]. For the same molecule, the kon in experiment [2] worked out at 1.67e+06 M⁻¹ s⁻¹; in experiment [3], 1.78e+06 M⁻¹ s⁻¹.

For orientation: IC50 means the concentration that gives 50% inhibition. Higher therefore signals weaker potency in that assay. Usually Kd stands for a measure of binding affinity in units of concentration. Low readings indicate tighter binding, high ones weaker binding. For orientation: koff means the first-order rate constant of dissociation. Lower therefore signals slow dissociation. What is called kon is the rate constant with which the complex forms. A low value points to slow association. The term EC50 denotes the midpoint of the concentration-response curve. A low value points to a more potent agent.

The values are drawn from patent US20230287125A1 (LEPU BIOPHARMA, published 2023).
